Measurements: the supplement of paper PMC9170038

System: K4 kissing-loop RNA reporter
Experiment: apparent KD of K4 kissing-loop reporter; higher = weaker reporter binding
Details: Eterna round: R107
Protocol: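 RNA-MaP round R107: designed RNA switches with theophylline, tryptophan, arginine or FMN aptamers are transcribed on-chip within common flanks. They are titrated with a labelled K4 kissing-loop RNA reporter in RNA-MaP buffer (100 mM Tris pH 7.5, 80 mM KCl, 4 mM MgCl2), without ligand or with the indicated ligand. Median apparent KD per design.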

[1] = input ligand: theophylline 20 uM
[2] = input ligand: tryptophan 2.4 mM
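Further: bound reporter read as fluorescence of individual clusters on recovered sequencing chips by microscopy, with normalized cluster intensities fitted with a binding model.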

Sequence | apparent KD of K4 kissing-loop reporter (input ligand: FMN 200 uM) [nM] | apparent KD of K4 kissing-loop reporter (input ligand: arginine 13.2 mM) [nM] | apparent KD of K4 kissing-loop reporter (input ligand: none) [nM] | apparent KD of K4 kissing-loop reporter [1] [nM] | apparent KD of K4 kissing-loop reporter [2] [nM]
UAUUCUGUUCGAAAGAACGGAAUUUCGGAAGGAGCGCGAGAAAUCGCAGGUAGGUCGCCGAAAUUAUUAGGUAGUGAUGUUACCU [Arginine A K4 6] | 125 | 99.8 | 120 | 101 | 115
CGUUUAUUGCAGGAUACCAGUACCCAUUAUGUACGUUUAUAGUAGAGUGAUGUUCUAAAGUACCCUUGGCAGCUUCCCGUGACCC [#22 K4 Theophylline B Exclusion] | 119 | 193 | 142 | 188 | 90.3
CGGUUAUAGCAGGAUACCAGUACCCAUUAUGUACGUUUAUAGUAGAGUGAUGUUCUAAAGUACCCUUGGCAGCUUCCCGUGACCC [#23 K4 Theophylline B Exclusion] | 150 | 199 | 168 | 265 | 127
AAUUCUCUUUUUGAUACCAGCGAAUCUGAGUGAUGUUCUAAGCCAUACAAUUGAGUAAAUCGCCCUUGGCAGCAAUUCGUGGGUG [theeternabot_exclusion_KL_Theo_B_20] | 898 | 681 | 724 | 921 | 567
UCCUAGGCUCGAAAGAGCCUAGGAUUGACUCAGGAUAUCCGGAAACGGAGAAGGGAGUCACUAGUGAUGUUAGGGAUUCCCUAUU | 312 | 91.2 | 100 | 85.9 | 94.2
AACUGUUGGGAAGGAUAUUAUGGUGGCUAAAUCCAGUGAUGUUGGAAAUCGGUACUCGCCCACCUUUAAGAAGGUCCGUGAAAGA [theeternabot_sameState_KL_FMN_B_6] | 152 | 164 | 151 | 199 | 130
UAGUCAUACAGAGGAUAUCGUAUGAGUGAUGUUCAUAUGCGUACAUCAACUUGAUGUACACCUAGACGAGAAGGCUGUAUGACUA [FMB B SS t6a] | 172 | 199 | 252 | 212 | 227
AGACUACCACACUGUCAAUAGACAGUGAACUAGGAUAUGCUGAUAAGCAGAAGGAGUGAUGUUCCUCGGUAGUCAAUAAAAUAAU [FmnAX 13 C67] | 419 | 255 | 303 | 346 | 235
AGGUACAAAAGUACCGCUAGAUCCACGGAAGGAGCGCCGGAAACGGCAGGUAGGUCGCCGGGCAGUGAUGUUGCCGGAUCUAGCA [Omei KL Arginine A SS A v4] | 161 | 155 | 231 | 240 | 198
UAAUCCUAGUGAUAAUAAUCAAGUGGUGGGCGAGGACCGGUACGGCCGCCACUCGAAAAUGCAGUGAUGUUGUAAUCCGGAUAAU [Exclusion - Tryptophan A (Freestyle 5)] | 798 | 874 | 1080 | 872 | 450
UUCUGCAUCUCGGCCGCCACUCACUAGUGAUGUUAGUAAGGAGCGACUAGAAAAGUCCAGUUAAUGAGGACCGGGAGAAGCUCUU [Exclusion Tryptophan B GF 1] | 281 | 298 | 312 | 199 | 217
UAAUUUAUUUCUUUUAUAUAAUAAUCAGAUACCAGUGAUUAAUGUCACCCUUGGCAGCUGUAUAGAGUGAUGUUCUAAUGCUUAA [JR_SSTheophyA_Sub022] | 176 | 169 | 142 | 233 | 147
UGCAUCAGUGCCUUUGAUCUAUUCCUGGAUACCAGAUCCUACUUGAUCCCUUGGCAGCCAUACGGGAGUGAUGUUCCAUGUAUCC [theeternabot_exclusion_KL_Theo_A_43] | 210 | 199 | 209 | 285 | 167
AAAUAAAGCAGUCAGCCAGUGAUGUUGGAAGGAGCGUGCGAAAGCACAGGUAGGUCGCCAAAACCUAAUACUGGCUGCUAAAUAA [#SwitchBubble 1 #K4Early] | 979 | 643 | 773 | 753 | 542
CAUACGAAGCAGUGAUGUUGCUUAUGAGAAGGAGCGCACGAAAGUGCAGGUAGGUCGCUCAGCCAUGUGGACGAAAACGUCCACA [whbob_SS_Arginine_A_sa112] | 266 | 273 | 276 | 265 | 269
AUCUUGUUUGGAGGAUAUUCUUUAUUCGACAUAACCUUCUAUAAGGUGCAGUGAUGUUGCAAUAUAGGAGAAGGUCGAGUGAGAU [Exclusion FMN B GF 17] | 239 | 174 | 188 | 166 | 188

Sequence | apparent KD of K4 kissing-loop reporter (input ligand: FMN 200 uM) [nM] | apparent KD of K4 kissing-loop reporter (input ligand: arginine 13.2 mM) [nM] | apparent KD of K4 kissing-loop reporter (input ligand: none) [nM] | apparent KD of K4 kissing-loop reporter [1] [nM] | apparent KD of K4 kissing-loop reporter [2] [nM]
ACGCUGGUGAAUAACACUAGCGAAAAUUCGCGAGGACCGGUACGGCCGCCACUCGCUAACUGCGAGUGAUGUUCGAUAAUAAAAU [Mat - Mod of OpenEnded 3 - D8] | 233 | 67.5 | 165 | 169 | 112
AUUAAUAUCACGGCCGCCACUGUAUAUUGUUUUUAUAUUUAGAAUAAUUGCCAGUGAUGUUGGAACAGGACCGGGUGAGUUUAUA [#28 K4 Tryptophan B Same State] | 511 | 434 | 626 | 402 | 323
UUUGUAUAGGGAAGGAGCGUGAAUGAUAAUGAAUAUAGUGAUGUUAUAUAUAAGAAAGAAUCACAGGUAGGUCGCCCGGAUGAGG [SSArgB.K] | 557 | 400 | 565 | 855 | 412
UGACAUUGCUCAGAUACCAGACCUGAGGAUCACCCUGGUGCCAAACGUACAAUAAUAAAUGUCCCUUGGCAGCUGAGCAAUGUCU [TheoBX 14] | 77.8 | 27.6 | 44.9 | 139 | 52.4
AAAAUAAACCAGUGAUGUUGGUGUGUAGAUACCAGCGACGAAAGUCGCCCUUGGCAGCUGUGGACGUACAAAAUAAGUACGUCCU [MatMod 23 - Jieux - Same State - Theophylline A] | 315 | 310 | 350 | 325 | 280
GAGAUAGAGGCGGCCGCCACUAGUGAUGUUAGUGAUGUUAGAAAGAGAAUAGAACAGGGAUUUGAUAGGACCGGGCCAGAUGGAG [wwemullin] | 57.6 | 51.3 | 48.9 | 48.7 | 63
AUUUAGACGAGUGAUGUUCGUGUUAUUACAGAGGAUAUGCGUAAUUGCAGAAGGCUGUAUUUAUAUAUGUUAUGUAAUUUUAAAA [JR_ExcFMNA_Sub007] | 89.5 | 108 | 88 | 99.4 | 73.2
UCGCUCGAGUAAGGAUAUCAAUAUCAAAGGUCGUAGUGAUGUUAUACCAGGCCAAUUUGGCGGUAGUGAGAAGGUACUAGCAGUU [theeternabot_sameState_KL_FMN_B_38] | 1090 | 294 | 688 | 461 | 405
CCAUCGCUAUUCGAUACCAGUCAUUUUUUAUUUUUUUUUUUUUUUGGAGUGAUGUUCCAAGACCCUUGGCAGCGAAUAGUGAUGG [whbob_SS_Theo_B_th77] | 91.3 | 109 | 76.3 | 114 | 68.1
GGUAGCGCCAGAGAUACCAGUCAUAUCGCUCUGGAGUGAUGUUCCGGAACGUGCGGAGAAGACCCUUGGCAGCUCAUGACGGUAU [Exclusion Theophylline B GF 3] | 219 | 175 | 189 | 227 | 171
GCCGUAGAUGGAAGGAGCGACUUCAGCGGAUAAACGUGACAAUUGGAGUGAUGUUCGCAAGGUCAGGUAGGUCGCCAUCUACGGC | 819 | 211 | 260 | 274 | 313
AUUCGUUUAUGUGAUACCAGACUUUGCAGUGAUGUUGCAUUAAUUUUUGAUUAUUAGUUUGUCCCUUGGCAGCACUAUUUAUUUA [JR_SSTheophyB_Sub004] | 40.2 | 81.5 | 44.8 | 80.1 | 36.6
AACUCUCAGAUACUUGAGUGAUGUUCAGGCCGAGGACCGGUACGGCCGCCACUCGGGUCUGAGAGAGGUUAUCAAAGAUAGCCAA [Omei KL Tryp A SS A v10] | 266 | 197 | 257 | 329 | 236
AAAAUAAAGGAGUGAUGUUCCAUAUGUGAUACCAGCCACGAAAGUGGCCCUUGGCAGCACUGCCAAGUGGACGAAAACGUCCACA [#OpenEnded 5 #StaticStem #K4Early] | 125 | 162 | 141 | 160 | 113
GUCGGGACUCGAGGAUAUCAGUGGAGGCCAGUGAUGUUGGCCGUCCCGGUAGUUAAAAUUUUACCCUGAGAAGGCGAUUUCUGUC [Veceinusqu] | 142 | 128 | 133 | 131 | 138
